How the values were obtained:
[1] = target: wildtype (WT) HA trimer from A/New Caledonia/20/1999 (H1 1999 NC), soluble trimeric format (influenza A virus A/New Caledonia/20/1999 (H1 1999 NC)) (UniProt Q6WG00); test: SEC; size exclusion on a Sepharose 10/300 column
[2] = target: Y98F HA trimer from A/New Caledonia/20/1999 (H1 1999 NC), soluble trimeric format (influenza A virus A/New Caledonia/20/1999 (H1 1999 NC)); test: SEC; size exclusion on a Sepharose 10/300 column

| Substance | stoichiometry N [1] | stoichiometry N [2] |
| --- | --- | --- |
| wildtype (WT) HA trimer from A/New Caledonia/20/1999 (H1 1999 NC), soluble trimeric format (from UniProt Q6WG00 1-565) (natural protein) | 3 |  |
| Y98F HA trimer from A/New Caledonia/20/1999 (H1 1999 NC), soluble trimeric format (natural protein) |  | 3 |

From paper PMC5087089
